The values that follow come from US20190367619A1 (ARGENX, published 2019).

Experiment [1] deals with TEV-cleaved wild-type recombinant human galectin-10 (soluble, in Fab complexes, or as recombinant galectin-10 crystals / CLCs) (human) (UniProt Q05315). Description: cell-based or functional assay.
For experiment [2], the target named is human galectin-10-His (recombinant human galectin-10 with TEV-cleavable N-terminal His-tag) (human). Description: ELISA, scFv-hFc on coated galectin-10-His (0.2 ug/mL).
In experiment [3] the target is T1, human galectin-10-His (recombinant human galectin-10 with TEV-cleavable N-terminal His-tag) (human).
T1 construct: SEC-MALLS: dimer in solution; also called Gal10-His; humanGal10-His
T1 chain: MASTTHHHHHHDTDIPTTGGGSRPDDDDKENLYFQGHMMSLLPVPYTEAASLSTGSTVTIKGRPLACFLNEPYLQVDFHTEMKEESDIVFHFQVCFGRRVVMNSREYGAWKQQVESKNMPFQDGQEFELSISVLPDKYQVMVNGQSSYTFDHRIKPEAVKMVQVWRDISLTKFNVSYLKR
Kind of experiment: SPR Biacore T3000, scFv-hFc captured by anti-human Fc, galectin-10-His as analyte. How it is done:
(§1) In order to determine the binding properties (on-rate/off-rate) of the scFv-human Fc panel, their binding capacity to galectin-10 was analyzed on Biacore T3000. For this purpose, a capture approach was set up. A CM5 Chip was coated with polyclonal anti-human Fc at 8000 RU, then a fixed concentration of the scFv-human Fc panel (1.5 μg/mL), diluted in HBS-EP pH7.4, were captured to reach a binding signal around 150 RU. Finally, a serial dilution of galectin-10-His (serial dilution, 1 over 2 from 5 μg/mL, 6 points of dilution) diluted in HBS-EP pH7.4 was injected. Raw data were analyzed via BIA evaluation software with a blank subtraction (4-3). The kd/KD and Rmax of each scFv-human Fc for galectin-10-His was determined using the Fit Kinetics simultaneous ka/kd/Binding with mass transfer/Local Rmax on BIA evaluation software.

Experiment [4] addresses T1, human galectin-10-His (recombinant …). Kind of experiment: ELISA, scFv-hFc on coated galectin-10-His (0.2 ug/mL). How it is done:
In a similar setup to that used during the initial screening, the relative binding properties of the 12 scFv-human Fc clones were analyzed by ELISA. Briefly, a Maxisorp plate was coated with galectin-10-His at 0.2 μg/mL and blocked with casein, before being incubated with a serial dilution of the scFv-human Fc fusion molecules. After several washing steps, detection of the bound scFv-human Fc was carried out with an anti-human Fc-HRP antibody. Absorbance was measured at 450 nm (reference at 620 nm) with Tecan instrument. Finally, the raw data (OD values) were plotted on GraphPad Prism 7.01. The EC50 value of each compound was calculated with a non-linear regression (log(agonist) vs. response Variable slope (four parameters)).

For experiment [5] the target is unchanged. Description: SPR Biacore T3000, scFv-hFc captured by anti-human Fc, galectin-10-His as analyte.
Experiment [6] shares this target. Kind of experiment: Biacore capture approach (summary table), scFv-human Fc. As for the experimental part: as §1
Experiment [7] concerns the target T2, TEV-cleaved wild-type recombinant human galectin-10 (soluble, in Fab complexes, or as recombinant galectin-10 … (human, UniProt Q05315 1-142)).
T2 sequence: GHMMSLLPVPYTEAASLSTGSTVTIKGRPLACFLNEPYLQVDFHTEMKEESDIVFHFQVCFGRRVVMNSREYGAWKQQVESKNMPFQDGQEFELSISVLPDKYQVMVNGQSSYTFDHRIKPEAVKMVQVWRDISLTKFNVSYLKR
Description: cell-based or functional assay.

Experiment [8] deals with T2, TEV-cleaved wild-type recombinant human …. Kind of experiment: cell-based or functional assay. This is another data set of the same source.
Experiment [9] shares this target. Description: cell-based or functional assay. This is another data set of the same source.
The target in experiment [10] is T1, human galectin-10-His (recombinant …). Kind of experiment: ELISA binding (summary table), scFv-human Fc.
In experiment [11] the target is T3, cynomolgus galectin-10-His, WGS isoform (cynomolgus).
T3 construct: not shown: His tag
T3 chain: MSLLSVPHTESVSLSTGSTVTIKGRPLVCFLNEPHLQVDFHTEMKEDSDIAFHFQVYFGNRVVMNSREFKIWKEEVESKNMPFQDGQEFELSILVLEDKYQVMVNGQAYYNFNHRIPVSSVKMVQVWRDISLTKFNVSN
Kind of experiment: ELISA, VHH on coated cynomolgus WGS galectin-10-His (1 ug/mL).

Experiment [12] has as its target T4, cynomolgus galectin-10-His, YRT isoform (cynomolgus).
T4 construct: not shown: His tag
T4 chain: T3 chain with K23E, G24A, L31F, F69Y, K70R, I71T, S92R
Description: ELISA, VHH on coated cynomolgus YRT galectin-10-His (1 ug/mL).

Residue numbers refer to the chain shown, from its start. Where two headings read alike, the source gives them in different places.

For the molecule “Isotype control, scFv-human Fc (irrelevant scFv-human Fc) (Fc fusion)”, the CLC formation (crystallization robot assay) in [1] came to 100%. In addition, the Bmax (OD values) in [2] was 0.018 OD.

B1: 6A11 scFv-human Fc (Fc fusion)
scFv: ELQLVESGGGLVQPGGSLRLSCSASGFTFGAYAMNWVRQAPGKGLEWVSGVNSGGGLTSYGESVKGRFTISRDNAKNTLYLQMNRLNPDDTAVYYCAKSKRGAVVAGTGDDYWGQGTQVTVSSGGGGSGGGGSGGGGSSSALTQPSAVSVSLGQTARITCQGGNFGRYYVSWYQQKPGQAPVLVIYKDSERPSGIPERFSGSSSGDTATLTISGAQAEDEADYYCQSGSSSDNAVFGGGTHLTVL
notes: about 100 kDa on SDS-PAGE; also called 6A11 ScFv-hFc; not shown: CH2-CH3 constant domains of human IgG1 (vector pUPEX50)
Turning to B1, in [3], the Kd is 0.711 nM and the koff worked out at 0.124 s⁻¹. In experiment [4], the “Bmax (OD values)” value came out at 1.59 OD and the EC50 is 0.01 nM. The Kd in experiment [5] is greater than 17 nM.

B2: 6F11 scFv-human Fc (Fc fusion)
scFv: QVQRQESGPGLVKPSQTLSVTCTVSGGSITTGPYSWSWIRQPPGKGLEWIGYIGYSGSTYYSPSLKSRTSISRDTSNNQFSLQLSSVTPEDTAVYYCARSRSSPTTFGMDYWGKGTLVTVSSGGGGSGGGGSGGGGSSSALTQPSAVSVSLGQTARITCQGGDFGRYYVAWYTQKPGQAPVLVIYQDSERPSGIPERFSGSSSGDTATLTISGAQAEDEAEYYCQSGISSDNIVFGGGTHLTVL
notes: about 100 kDa on SDS-PAGE; also called 6F11 ScFv-hFc; not shown: CH2-CH3 constant domains of human IgG1 (vector pUPEX50)
Take B2: in [3], the Kd came to 2.96 nM and the koff was 0.0172 s⁻¹. Moreover, in experiment [4], the “Bmax (OD values)” value was 1.56 OD and the concentration giving a half-maximal response (EC50) was determined as 0.48 nM. Further, in experiment [5], the Kd is greater than 17 nM.

B3: 6F05 scFv-human Fc (Fc fusion)
scFv: QLQLVESGGGLVQPGGSLRLSCAASGFTFSSYAMSWVRQAPGKGLEWVSAINSGGGSTSYADSVKGRFTISRDNAKNTLYLQMNSLKPEDTAVYYCATPGDRLWYYRYDYWGQGTQVTVSSGGGGSGGGGSGGGGSQAGLTQPPSVSGTLGKAVTISCAGTSSDIGYGNYVSWYQQLPGTAPKLLIYKVSRRASGVPDRFSGSKSGNTASLSISGLQSEDEADYYCASYRYRNNVVFGGGTHLTVL
notes: about 100 kDa on SDS-PAGE; also called 6F5; 6F05 ScFv-hFc; not shown: CH2-CH3 constant domains of human IgG1 (vector pUPEX50)
Consider B3, for which, in [3], the Kd was 0.918 nM and the koff was 0.000117 s⁻¹. In experiment [6], the Kd was 0.9 nM and the koff is 0.00012 s⁻¹. Besides, the “dissolution of in vitro grown Gal10 crystals (spinning disk confocal microscopy)” value in experiment [7] is no more than 90 min. Besides, in experiment [4], the “Bmax (OD values)” value is 2.9 OD and the EC50 stood at 0.02 nM. For the same molecule, in experiment [8], the “100% Inhibition of CLC formation (Conc uM)” value is 1 µM and the “100% Solubilization of CLC (Conc uM)” value was 4 µM. Besides, the “100% Solubilization of CLC (Conc uM)” value in experiment [9] was 4 µM. Further, the EC50 in experiment [10] turned out to be 0.02 nM.

B4: VHH 1D06 (purified, Myc-His tagged) (VHH, not shown: small tags and cut ends)
VHH: QLQLVESGGGLVQPGGSLRLSCAASENSVSTYAMGWFRQAPGKEREFVAAITRAGGNTYNADSVKGRFTISRDNAENTIYLQMNSLKPEDTAVYSCAAGPRYSTISTMFPYWGQGTQVTVSS
notes: also called 1D6
With B4, the binding result in experiment [11] and in [12] was “no binding” throughout.
